According to patent US20110243928A1 (published 2011):
Each block holds one binder with its values, some of them ahead of it. *: point of attachment. Biotin = O=C1N[C@H]2[C@H](CS[C@H]2CCCCC(=O)*)N1

Experiments:
[1] = target: T1, E. coli-expressed recombinant human IL-13 (human, UniProt P35225 35-146); experiment: cell-based or functional assay
[2] = target: T2, E. coli-expressed recombinant cynomolgus IL-13 (cynomolgus, UniProt Q5I6E4 21-132 (Macaca thibetana entry)); experiment: cell-based or functional assay
T2 chain: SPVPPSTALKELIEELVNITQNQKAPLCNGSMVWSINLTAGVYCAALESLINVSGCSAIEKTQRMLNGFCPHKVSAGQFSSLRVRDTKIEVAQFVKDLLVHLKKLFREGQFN

[3] = target: E. coli-expressed recombinant Q130 human IL-13 (human, UniProt P35225 35-146, limits assumed); experiment: cell-based or functional assay
Chain of E. coli-expressed recombinant Q130 human IL-13 (P35225 35-146 limits assumed): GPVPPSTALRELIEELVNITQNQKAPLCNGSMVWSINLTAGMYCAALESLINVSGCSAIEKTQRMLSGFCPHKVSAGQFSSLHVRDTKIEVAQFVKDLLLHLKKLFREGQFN

[4] = target: mammalian-expressed (CHO cell) human IL-13 (human, UniProt P35225 35-146, limits assumed); experiment: cell-based or functional assay
Chain of mammalian-expressed (CHO cell) human IL-13 (P35225 other isoform, or with tags, fused parts or gaps limits assumed): as the sequence (P35225 35-146 limits assumed) above, with Q110R counted along it

[5] = target: T3, 16 mer peptide 30 (N-terminal biotin; C-terminal amide); experiment: 16 mer peptide ELISA
T3 peptide: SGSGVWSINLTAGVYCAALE
Description: (§1) Biotinylated 16 mer peptides offset by 4 were synthesised to map the location of the B cell epitope recognised by mAb 6A1 on both human and cynomolgus IL-13. An ELISA method was used to detect binding of immobilised biotinylated peptide to the parental mAb 6A1.

[6] = target: T4, 16 mer peptide 44 (cynomolgus, N-terminal biotin; C-terminal free acid); experiment: 16 mer peptide ELISA
T4 construct: also called 44 (Control)
T4 peptide: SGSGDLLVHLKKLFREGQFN
Description: as §1

[7] = target: T5, fine mapping peptide 421 (SMILES …); experiment: fine mapping peptide ELISA
T5 peptide: Biotin-SGSGKLFREG-NH2
Method: (§2) A binding epitope for mAb 6A1 was determined using a peptide set based around […] for binding to human IL-13 and […] for binding to cynomolgus IL-13. Peptides were ordered with 1 amino acid sequentially removed from either the N or C-terminus of these parental peptide sequences (i.e. […] or […]), in order to define the precise linear binding epitope for mAb 6A1.
(§3) An ELISA method was used to detect binding of immobilised biotinylated peptide to the parental mAb 6A1.

[8] = target: T6, fine mapping peptide 423 (SMILES N=C(N)NCCC[C@H](NC(=O)[C@H](Cc1ccccc1)NC(=O)CNC(=O)[C@H](CO)NC(=O)CNC(=O)[C@H](CO)NC(=O)CCCC[C@@H]1SC[C@@H]2NC(=O)N[C@@H]21)C(=O)N[C@@H](CCC(=O)O)C(=O)NCC(N)=O); experiment: fine mapping peptide ELISA
T6 peptide: Biotin-SGSGFREG-NH2
Method: as §2, §3

[9] = target: T7, E. coli-expressed recombinant human IL-4 (human, UniProt P05112 25-153); experiment: human IL-4 binding sandwich ELISA
T7 sequence (looked up): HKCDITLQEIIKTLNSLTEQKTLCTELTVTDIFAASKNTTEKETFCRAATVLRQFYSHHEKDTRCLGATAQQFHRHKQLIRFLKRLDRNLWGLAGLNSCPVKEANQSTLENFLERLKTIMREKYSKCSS

[10] = target: T1, E. coli-expressed recombinant human …; experiment: BIAcore analysis 1, antibody captured, IL-13 in solution
Method: (§4) Completed for both human and cynomolgus IL-13 (E. coli-expressed protein). The quoted KD values are the average from 5 different IL-13 concentration curves (done in triplicate). Note that mass transfer issues were apparent in this analysis and that a modified experimental protocol (to correct for this issue) has been completed in analysis 4 (where no mass transfer issues were present).
(§5) The kinetics analysis was performed on a Biacore 3000 machine, using an antibody capture method. Briefly, for the chimeric 6A1 and humanised antibody constructs Protein A capture was used, whilst for the parental murine 6A1 antibody, capture was by a anti-mouse Fc antibody supplied by Biacore. Briefly, the method is as follows, the capture ligand was immobilised to a CM5 Biosensor chip by primary amine coupling in accordance with Biacore standard protocols and using the reagents supplied in Biacores' primary amine coupling kit. The method involves activation CM5 sensor surface by passing a solution of 50 mM N-hydroxy-succinimide (NHS) and 200 mM N-ethyl-N′-dimethylaminopropyl […] (EDC) over the surface. Then, the capture ligand (dissolved in acetate buffer pH5 or pH4.5) was coupled to the activated sensor surface after which any still activated esters were blocked by an injection of 1M ethanolamine hydrochloride, pH8.5.
(§6) The candidate antibody was then passed over the Protein A or anti-mouse Fc antibody surface, depending on whether it was human or mouse in origin and captured. Once a stable binding signal was seen IL13 was passed over the captured antibody surface at various defined concentrations. The subsequent binding curves were analysed with Biacore analysis software BIAeval v4.1 to determine kinetics. The experiments were carried out using Biacore HBS-EP buffer.

[11] = target: T2, E. coli-expressed recombinant …; experiment: as above
Method: as §4, §5, §6

[12] = target: T8, E. coli-expressed recombinant det-1 tagged human IL-13 (human, UniProt P35225 35-146); experiment: competition ELISA: inhibition of det-1 tagged human IL-13 binding to human IL-13Rα1-Fc
T8 construct: also called Det-1 tagged human IL-13 (made in-house); not shown: det-1 tag
T8 sequence (P35225 other isoform, or with tags, fused parts or gaps): as the sequence (P35225 35-146 limits assumed) above, with Q110R counted along it

[13] = target: T8, E. coli-expressed recombinant det-1 …; experiment: competition ELISA: inhibition of det-1 tagged human IL-13 binding to human IL-13Rα2-Fc
[14] = target: T7, E. coli-expressed recombinant human IL-4; experiment: binding ELISA
[15] = target: E. coli-expressed recombinant human GM-CSF (human, UniProt P04141 18-144); experiment: binding ELISA
Chain of E. coli-expressed recombinant human GM-CSF (P04141 18-144 limits assumed): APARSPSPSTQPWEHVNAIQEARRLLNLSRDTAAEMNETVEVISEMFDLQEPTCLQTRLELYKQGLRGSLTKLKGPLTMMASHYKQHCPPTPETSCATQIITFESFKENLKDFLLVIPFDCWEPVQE

[16] = target: T1, E. coli-expressed recombinant human …; experiment: BIAcore analysis 4, antibody captured on Protein A, IL-13 in solution
Method: (§7) Completed for both human and cynomolgus IL-13 (E. coli-expressed protein). The quoted KD values are the average from 5 different IL-13 concentration curves (done in triplicate).
as §5, §6

[17] = target: T2, E. coli-expressed recombinant …; experiment: as above
Method: as §7, §5, §6

T1 sequence (P35225 other isoform, or with tags, fused parts or gaps): as the sequence (P35225 35-146 limits assumed) above, with Q110R counted along it

ND50, TF-1 cell proliferation bioassay [1]: 0.0783 µg/mL
ND50, TF-1 cell proliferation bioassay [2]: 0.04 µg/mL
ND50, TF-1 cell proliferation bioassay [3]: 0.11 µg/mL
ND50, TF-1 cell proliferation bioassay [4]: 0.037 µg/mL
absorbance at 490 nm [5]: 0.062 A490
absorbance at 490 nm [6]: 2.23 A490
absorbance at 490 nm [7]: 0.059 A490
absorbance at 490 nm [8]: 0.052 A490
binding result [9]: no binding
Kd [10]: 0.035 nM
koff [10]: 6.78e-05 s⁻¹
kon [10]: 1.96e+06 M⁻¹ s⁻¹
Kd [11]: 0.061 nM
koff [11]: 5.6e-05 s⁻¹
kon [11]: 914000 M⁻¹ s⁻¹
IC50 [12]: 0.165 µg/mL
IC50 [13]: 0.056 µg/mL
B1: monoclonal antibody 6A1 (antibody, IgG1, V domains shown)
VH: EIQLQQSVAELVRPGASVRLSCTASGFYIKDTYMHWVIQRPEQGLEWIGTIDPANGNTKYVPKFQGKATITADTSSNTAYLRLSSLTSEDTAIYYCARSIYDDYHYDDYYAMDYWGQGTSVTVSS
VL: DVLMTQTPLSLPVSLGDQASISCRSSQNIVHINGNTYLEWYLQKPGQSPKLLIYKISDRFSGVPDRFSGSGSGTDFTLKISRVEAEDLGVYYCFQGSHVPWTFGGGTKLEIK
notes: also called 6A1 parental mAb; parental mouse mAb 6A1

binding result [14]: no binding (tested: 30 µg/ml)
binding result [15]: no binding (tested: 30 µg/ml)
Kd [10]: 0.3 nM
koff [10]: 0.000155 s⁻¹
kon [10]: 507000 M⁻¹ s⁻¹
Kd [11]: 0.035 nM
koff [11]: 1.55e-05 s⁻¹
kon [11]: 446000 M⁻¹ s⁻¹
Kd [16]: 0.17 nM
koff [16]: 0.00014 s⁻¹
kon [16]: 824000 M⁻¹ s⁻¹
Kd [17]: 0.08 nM
koff [17]: 5.86e-05 s⁻¹
kon [17]: 730000 M⁻¹ s⁻¹
B2: L1+A1 (antibody, human IgG1, kappa, V domains shown)
VH: QVQLVQSGAEVKKPGSSVKVSCKASGFYIKDTYMHWVRQAPGQGLEWMGTIDPANGNTKYVPKFQGRVTITADESTSTAYMELSSLRSEDTAVYYCARSIYDDYHYDDYYAMDYWGQGTLVTVSS
VL: DIVMTQSPLSLPVTPGEPASISCRSSQNIVHINGNTYLEWYLQKPGQSPRLLIYKISDRFSGVPDRFSGSGSGTDFTLKISRVEADDVGIYYCFQGSHVPWTFGQGTKLEIKR
notes: Humanised 6A1, VH construct A1 and VL construct L1, human gamma1 wild type / kappa constant regions; also called A1L1; humanised anti-IL-13 mAb L1+A1
